According to patent publication US20180125988:

Tests used:
[1] = biological target: T1, AC1254 (CCD1-BSRS1-AE713)
T1 chain: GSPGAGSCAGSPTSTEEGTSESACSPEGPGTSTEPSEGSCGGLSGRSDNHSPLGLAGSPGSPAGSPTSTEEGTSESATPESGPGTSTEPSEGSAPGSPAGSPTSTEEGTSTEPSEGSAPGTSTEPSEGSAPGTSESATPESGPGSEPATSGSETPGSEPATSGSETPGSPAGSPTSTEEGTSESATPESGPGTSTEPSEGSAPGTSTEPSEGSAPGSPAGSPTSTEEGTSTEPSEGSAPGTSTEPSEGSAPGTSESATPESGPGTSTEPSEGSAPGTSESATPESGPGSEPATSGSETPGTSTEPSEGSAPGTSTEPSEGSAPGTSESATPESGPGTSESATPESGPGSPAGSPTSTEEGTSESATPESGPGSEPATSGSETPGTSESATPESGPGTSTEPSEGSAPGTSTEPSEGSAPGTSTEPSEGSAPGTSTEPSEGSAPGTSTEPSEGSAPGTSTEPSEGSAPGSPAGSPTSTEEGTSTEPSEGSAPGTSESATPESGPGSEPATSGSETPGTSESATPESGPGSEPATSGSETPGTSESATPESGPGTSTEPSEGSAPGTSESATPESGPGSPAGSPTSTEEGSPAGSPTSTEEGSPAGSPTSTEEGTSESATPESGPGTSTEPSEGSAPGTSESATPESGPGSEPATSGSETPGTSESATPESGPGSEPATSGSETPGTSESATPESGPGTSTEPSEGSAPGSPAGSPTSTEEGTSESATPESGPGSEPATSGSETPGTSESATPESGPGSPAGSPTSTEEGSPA

XTEN_AE864 = biological target: T2, XTEN_AE864
T2 chain: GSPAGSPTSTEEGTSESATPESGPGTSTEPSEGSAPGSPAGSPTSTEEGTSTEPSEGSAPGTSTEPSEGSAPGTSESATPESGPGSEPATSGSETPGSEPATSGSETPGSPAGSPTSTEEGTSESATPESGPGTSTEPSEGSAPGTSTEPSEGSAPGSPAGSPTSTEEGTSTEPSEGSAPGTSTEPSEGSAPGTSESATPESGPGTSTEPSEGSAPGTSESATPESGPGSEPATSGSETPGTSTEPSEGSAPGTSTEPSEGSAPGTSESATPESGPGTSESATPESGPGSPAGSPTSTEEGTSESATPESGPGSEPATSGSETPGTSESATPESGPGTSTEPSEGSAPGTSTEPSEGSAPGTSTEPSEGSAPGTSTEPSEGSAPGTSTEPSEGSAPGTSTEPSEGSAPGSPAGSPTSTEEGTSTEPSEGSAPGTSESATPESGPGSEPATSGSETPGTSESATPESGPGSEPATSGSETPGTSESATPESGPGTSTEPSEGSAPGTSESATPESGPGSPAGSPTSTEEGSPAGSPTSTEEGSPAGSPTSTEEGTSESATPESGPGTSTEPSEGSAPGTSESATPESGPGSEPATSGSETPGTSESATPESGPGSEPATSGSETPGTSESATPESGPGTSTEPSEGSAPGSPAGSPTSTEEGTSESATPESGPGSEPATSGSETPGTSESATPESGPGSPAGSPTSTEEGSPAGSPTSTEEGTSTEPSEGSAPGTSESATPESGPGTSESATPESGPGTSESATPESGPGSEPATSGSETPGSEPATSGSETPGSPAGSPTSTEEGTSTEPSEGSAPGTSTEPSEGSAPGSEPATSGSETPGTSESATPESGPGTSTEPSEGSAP

B1: recombinant mouse MMP-9 (protein)
chain: FQTFKGLKWDHHNITYWIQNYSEDLPRDMIDDAFARAFAVWGEVAPLTFTRVYGPEADIVIQFGVAEHGDGYPFDGKDGLLAHAFPPGAGVQGDAHFDDDELWSLGKGVVIPTYYGNSNGAPCHFPFTFEGRSYSACTTDGRNDGTPWCSTTADYDKDGKFGFCPSERLYTEHGNGEGKPCVFPFIFEGRSYSACTTKGRSDGYRWCATTANYDQDKLYGFCPTRVDATVVGGNSAGELCVFPFVFLGKQYSSCTSDGRRDGRLWCATTSNFDTDKKWGFCPDQGYSLFLVAAHEFGHALGLDHSSVPEALMYPLYSYLEGFPLNKDDIDGIQYLYGRGSKPDPRPPATTTTEPQPTAPPTMCPTIPPTAYPTVGPTVGPTGAPSPGPTSSPSPGPTGAPSPGPTAPPTAGSSEASTESLSPADNPCNVDVFDAIAEIQGALHFFKDGWYWKFLNHRGSPLQGPFLTARTWPALPATLDSAFEDPQTKRVFFFSGRQMWVYTGKTVLGPRSLDKLGLGPEVTHVSGLLPRRLGKALLFSKGRVWRFDLKSQKVDPQSVIRVDKEFSGVPWNSHDIFQYQDKAYFCHGKFFWRVSFQNEVNKVDHEVNQVDDVGYVTYDLLQCP
[1]
  proteolytic cleavage at the PCM (SDS-PAGE, C4 RP-HPLC); enzyme:substrate 1:6711, 2 h, 37 C: all proteases tested here cleaved the construct as intended, with varying degree of catalytic efficiency

B2: human neutrophil elastase (protein)
chain: IVGGRRARPHAWPFMVSLQLRGGHFCGATLIAPNFVMSAAHCVANVNVRAVRVVLGAHNLSRREPTRQVFAVQRIFENGYDPVNLLNDIVILQLNGSATINANVQVAQLPAQGRRLGNGVQCLAMGWGLLGRNRGIASVLQELNVTVVTSLCRRSNVCTLVRGRQAGVCFGDSGSPLVCNGLIHGIASFVRGGCASGLYPDAFAPVAQFVNWIDSIIQ
XTEN_AE864
  proteolytic degradation (SDS-PAGE), elastase:XTEN 1:100, 2 h, 37 C: XTEN_AE864 was completely digested by neutrophil elastase at the 1:100 molar ratio
  proteolytic degradation (SDS-PAGE), elastase:XTEN 1:1000, 2 h, 37 C: Partial degradation was observed for XTEN_AE864 when incubating with neutrophil elastase at the 1:1000 molar ratio

B3: recombinant human matriptase (protein)
chain: VVGGTDADEGEWPWQVSLHALGQGHICGASLISPNWLVSAAHCYIDDRGFRYSDPTQWTAFLGLHDQSQRSAPGVQERRLKRIISHPFFNDFTFDYDIALLELEKPAEYSSMVRPICLPDASHVFPAGKAIWVTGWGHTQYGGTGALILQKGEIRVINQTTCENLLPQQITPRMMCVGFLSGGVDSCQGDSGGPLSSVEADGRIFQAGVVSWGDGCAQRNKPGVYTRLPLFRDWIKENTGV
[1]
  proteolytic cleavage at the PCM (SDS-PAGE, C4 RP-HPLC); enzyme:substrate 1:12.5, 2 h, 37 C: all proteases tested here cleaved the construct as intended, with varying degree of catalytic efficiency

B4: recombinant human MMP-7 (protein)
chain: YSLFPNSPKWTSKVVTYRIVSYTRDLPHITVDRLVSKALNMWGKEIPLHFRKVVWGTADIMIGFARGAHGDSYPFDGPGNTLAHAFAPGTGLGGDAHFDEDERWTDGSSLGINFLYAATHELGHSLGMGHSSDPNAVMYPTYGNGDPQNFKLSQDDIKGIQKLYGKRSNSRKK
[1]
  proteolytic cleavage at the PCM (SDS-PAGE, C4 RP-HPLC); enzyme:substrate 1:200, 2 h, 37 C: all proteases tested here cleaved the construct as intended, with varying degree of catalytic efficiency
